Test system: Kelly neuroblastoma cells
Assay: PNA cellular uptake assay (fluorescence of cell lysate)
Format: cell-based, Human
Conditions: 0.1 μM in Opti-MEM, no transfecting agent, 24 h incubation (text; method: 6 h at 37°C, then 48 h), fluorescence of cell lysate and media 485/535 nm, 3 biological repeats and 4 technical repeats
Source text: Cellular uptake of the described tiny PNA sequence was studied in vitro on Human Kelly neuroblastoma cell line, without the use of any transfection agents, and compared to previously reported results from our group (Piacenti et al., [2019]). In particular, the PNA oligomers were provided with short peptide carriers at both termini consisting of a trilysines segment at the C-terminus and one lysine at the N-terminus (FITC-PNA2) or Cys-Lys dipeptide at the N-terminus (FITC-PNA3) (Table 1), that was previously reported by Fabani et al. ([2010]) to promote cellular uptake for PNA single strands. Kelly cells were incubated for 24 h with FITC-PNA2 or FITC-PNA3 sequences individually, at minimal 0.1 μM concentration in optiMEM, without the use of any transfecting agent and using a protocol for miRNA mimics delivery, which was previously optimized (Curtin, [2018]). Both peptide carriers were able to provide internalization of PNA sequences albeit to a different extent (Figure 9A); uptake was slightly higher than 3% for FITC-PNA2 and almost 5% for FITC-PNA3.
Kelly cells were seeded in 6-well plates in duplicates at 0.5 × 10^6 density. […] The fluorescence of the cell lysate and of the media was read in a dual beam plate reader, at 485/535 nm.

FITC- Ahx -CK - tggcagtg—KKK- NH2 [FITC-PNA3, PNA1 with Cys-Lys at N-terminus and KKK at C-terminus, FITC-Ahx; reported in previous work, used for comparison]
Cellular uptake (internalization): ~5%

FITC- Ahx -K- tggcagtg—KKK-NH2 [FITC-PNA2, PNA1 with K at N-terminus and KKK at C-terminus, Ahx linker and FITC fluorescent tag]
Cellular uptake (internalization): higher than 3%

From publication PMC7719796, “Structural Insights on Tiny Peptide Nucleic Acid (PNA) Analogues of miRNA-34a: An in silico and Experimental Integrated Approach” (Frontiers in Chemistry, 2020)
